Measured values: patent US20110288036A1, “Methods for Treating or Preventing Vascular Graft Failure” (priority 2010, published 2011)
Where no end group is shown, it is not given here.

Target: MK2 (mitogen-activated protein kinase-activated protein kinase 2), P49137
Assay: cell-based or functional assay

MK2 (mitogen-activated protein kinase-activated protein kinase 2), P49137, sequence (P49137 46-400): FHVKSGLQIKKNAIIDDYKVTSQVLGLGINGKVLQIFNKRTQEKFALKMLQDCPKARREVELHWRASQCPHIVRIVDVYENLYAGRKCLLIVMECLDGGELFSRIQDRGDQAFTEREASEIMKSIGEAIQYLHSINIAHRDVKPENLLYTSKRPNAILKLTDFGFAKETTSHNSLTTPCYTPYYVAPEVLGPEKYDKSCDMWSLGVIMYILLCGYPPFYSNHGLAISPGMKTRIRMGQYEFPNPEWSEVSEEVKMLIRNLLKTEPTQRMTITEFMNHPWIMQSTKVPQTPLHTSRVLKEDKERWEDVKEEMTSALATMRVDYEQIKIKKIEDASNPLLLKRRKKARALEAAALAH

For YARAAARQARAKALARQLGVAA (not fully specified (C-terminus)) [MMI-0100 (…; SEQ ID NO: 1)], which Percent Activity (radiometric kinase assay, 100 µM peptide) (percent activity) is on record?
The Percent Activity (radiometric kinase assay, 100 µM peptide) (percent activity) was less than 5.
